Where a chain is given by its changes, count along the chain named. Where two headings read alike, the source gives them in different places.
B1: hu4D5-g3.1 Fab (Fab, V domains shown)
VH: EVQLVESGGGLVQPGGSLRLSCAASGFNIKDTYIHWVRQAPGKGLEWVARIYPTNGYTRYADSVKGRFTISADTSKNTAYLQMNSLRAEDTAVYYCARGHYSSGHPFDYWGQGTLVTVSS
VL: not shown
B2: hu4D5-g3.2 Fab (Fab, V domains shown)
VH: B1 VH with H100I, Y101G, S102N, S103G, G104A, H105E, P106G, F107M
VL: not shown
B3: hu2C4-g3.1 IgG1 (antibody, V domains shown)
VH: EVQLVESGGGLVQPGGSLRLSCAASGFTFTDYTMDWVRQAPGKGLEWVADVNPNSGGSIYNQRFKGRFTLSVDRSKNTLYLQMNSLRAEDTAVYYCARLMSYGYFDYWGQGTLVTVSS
VL: DIQMTQSPSSLSASVGDRVTITCKASQDVSIGVAWYQQKPGKAPKLLIYSASYRYTGVPSRFSGSGSGTDFTLTISSLQPEDFATYYCQQYYIYPYTFGQGTKVEIK
B4: hu2C4-g3.2 IgG1 (antibody, V domains shown)
VH: B3 VH with M100L, S101A, F105L
VL: B3 VL
B5: hu2C4-g1.1 IgG1 (antibody, V domains shown)
VH: EVQLVESGGGLVQPGGSLRLSCAASGFTFTDYTMDWVRQAPGKGLEWVADVNPNSGGSIYNQRFKGRFTLSVDRSKNTLYLQMNSLRAEDTAVYYCARAIAGGVLLDYWGQGTLVTVSS
VL: B3 VL
B6: hu2C4-g1.2 IgG1 (antibody, V domains shown)
VH: B5 VH with A101T, G102N, G103E
VL: B3 VL
B7: hu2C4-g2.1 IgG1 (antibody, V domains shown)
VH: B5 VH with A99S, I100S, A101T, G102P, G103P, V104F, L105F, L106M
VL: B3 VL
B8: hu2C4-g2.2 IgG1 (antibody, V domains shown)
VH: B5 VH with A99S, I100S, A101R, G102P, G103P, V104W, L105F, L106F
VL: B3 VL
B9: F9.13.7 (antibody, V domains shown)
VH: QVQLQQPGAELVKPGASVKLSCKASGYTFTSYWMHWVKQGPGQGLEWIGEIDPSDSYPNYNEKFKGKATLTVDKSSSTAYMQLSSLTSEDSAVYYCASLYYYGTSYGVLDYWGQGTSVTVSS
VL: DIQMTQTTSSLSASLGDRVTISCRASQDISNYLNWYQKKPDGTVKLLIYYTSRLHSGVPSRFSGSGSGTDYSLTIRNLEQEDIATYFCQQGYTLPYTFGGGTKLEIK
B10: hu4D5-g2.1 Fab (Fab, V domains shown)
VH: B1 VH with G99S, Y101K, S102N, S103V, G104M, H105G, P106L, F107V
VL: not shown
B11: hu4D5-g2.2 Fab (Fab, V domains shown)
VH: B1 VH with G99S, Y101A, S102L, S103V, G104Y, H105G, P106L, F107I
VL: not shown

Assays:
Assay in all cases: SPR
[1] = molecular target: T1, human epidermal growth factor receptor 2 (Homo sapiens, UniProt P04626)
[2] = molecular target: T1, human epidermal growth factor receptor 2; remark: listed apart in the source
[3] = molecular target: hen egg-white lysozyme (chicken (hen egg-white), UniProt P00698)

Kd [1]	koff [1]	kon [1]	Kd [2]	koff [2]	kon [2]	binding result [3]	Binder
0.39 nM	0.00032 s⁻¹	960000 M⁻¹ s⁻¹	–	–	–	–	B1
1.8 nM	0.0011 s⁻¹	660000 M⁻¹ s⁻¹	–	–	–	–	B2
–	–	–	6.4 nM	0.0004 s⁻¹	63000 M⁻¹ s⁻¹	–	B3
–	–	–	9.9 nM	0.00057 s⁻¹	58000 M⁻¹ s⁻¹	–	B4
–	–	–	25 nM	0.0012 s⁻¹	48000 M⁻¹ s⁻¹	–	B5
–	–	–	28 nM	0.0014 s⁻¹	49000 M⁻¹ s⁻¹	–	B6
–	–	–	25 nM	0.00096 s⁻¹	39000 M⁻¹ s⁻¹	–	B7
–	–	–	23 nM	0.0015 s⁻¹	65000 M⁻¹ s⁻¹	–	B8
–	–	–	–	–	–	binds	B9
0.27 nM	0.00035 s⁻¹	1.6e+06 M⁻¹ s⁻¹	–	–	–	–	B10
0.33 nM	0.00043 s⁻¹	1.8e+06 M⁻¹ s⁻¹	–	–	–	–	B11

Reference: article PMC7039645 (mAbs, 2020)
